Numbering of substitutions follows the chain as printed.
Tests used:
[1] = molecular target: T1, human PCSK9 with a C-terminal myc-myc-hexahistidine tag (human, UniProt Q8NBP7 31-692, limits assumed); assay: SPR 25C, purified mAb captured
T1 construct: also called hPCSK9-mmH; hPCSK9-mmh; not shown: C-terminal myc-myc-hexahistidine tag

[2] = molecular target: T1, human PCSK9 with a C-terminal …; assay: SPR 25C pH 7.4, purified mAb captured
Description: (§1) A Biacore CM4 sensor chip was derivatized with a monoclonal mouse anti-human Fc antibody to capture human antibodies. The histidine substitution variant anti-PCSK9 antibodies were captured onto the anti-human Fc sensor surface from culture medium after transient expression in Chinese hamster ovary (CHO) cells. […] Kinetic association (kₐ) and dissociation (kd) rate constants were determined by processing and fitting the data to a 1:1 binding model using Scrubber 2.0 curve fitting software. Binding dissociation equilibrium constants (KD) and dissociative half-lives (t_{1/2}) were calculated from the kinetic rate constants as: KD (M)=kd/kₐ; and t_{1/2} (min)=(In2/(60*kd).
All measurements were taken at 25° C.

[3] = molecular target: T1, human PCSK9 with a C-terminal …; assay: SPR 25C pH 6.0, purified mAb captured
Description: as §1
Also included in these experiments were several control/comparator antibodies. All measurements were taken at 25° C.

[4] = molecular target: T1, human PCSK9 with a C-terminal …; assay: SPR 25C, mAb captured;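 note: biacore CM4 surface bearing anti-human Fc antibody capturing the mAbs, PCSK9 binding and release rates fitted with a one-to-one model, KD and half-life derived from those rates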
Description: as §1

[5] = molecular target: human PCSK9 with a C-terminal myc-myc hexahistidine tag and a D374Y mutation (human, UniProt Q8NBP7 31-692, limits assumed); assay: cell-based or functional assay
[6] = molecular target: recombinant cynomolgus monkey PCSK9 with a C-terminal myc-myc hexahistidine tag (cynomolgus monkey, UniProt A8T662 31-692 (Macaca nemestrina entry), limits assumed); assay: cell-based or functional assay
[7] = molecular target: T1, human PCSK9 with a C-terminal …; assay: SPR 25C pH 7.2, mAb captured;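 note: biacore SPR, antibodies captured on anti-human Fc CM4 chip with PCSK9 flowed as analyte, rate constants from a one-to-one kinetic fit, KD and half-life derived from them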
Description: as §1

[8] = molecular target: T1, human PCSK9 with a C-terminal …; assay: SPR 25C pH 5.75, mAb captured;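 note: biacore surface with anti-human Fc antibody capturing the antibodies, PCSK9 as analyte, one-to-one kinetic fit, KD as kd over ka, half-life derived from kd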
Description: as §1

[9] = molecular target: T1, human PCSK9 with a C-terminal …; assay: blocking ELISA pH 7.2, 500 pM hPCSK9-mmH vs coated hLDLR EGFA-hFc, exp #1
Excerpt: The equilibrated sample solutions were then transferred to the LDLR EGFA-hFc coated plate prepared as described above.

[10] = molecular target: T1, human PCSK9 with a C-terminal …; assay: cell-based or functional assay
[11] = molecular target: T1, human PCSK9 with a C-terminal …; assay: blocking ELISA, hPCSK9-mmH vs coated hLDLR EGFA-hFc
Description: (§2) Briefly, hLDLR EGFA-hFc was coated at 2 μg/mL in PBS on a 96-well microtiter plate overnight at 4° C. followed by blocking with a solution of 0.5% (w/v) BSA in PBS.
(§3) The equilibrated sample solutions were then transferred to a LDLR EGFA-hFc coated plate.

[12] = molecular target: T1, human PCSK9 with a C-terminal …; assay: blocking ELISA pH 7.2, 500 pM hPCSK9-mmH vs coated hLDLR EGFA-hFc
Description: as §2, §3

[13] = molecular target: T1, human PCSK9 with a C-terminal …; assay: blocking ELISA pH 5.75, 500 pM hPCSK9-mmH vs coated hLDLR EGFA-hFc
Description: as §2, §3

B1: 316P(v2) (antibody, IgG4, V domains shown)
VH: EVQLVESGGGLVQPGGSLRLSCAASGFTFNNYAMNWVRQAPGKGLDWVSTISGSGGTTNYADSVKGRFIISRDSSKHTLYLQMNSLRAEDTAVYYCAKDSNWGNFDLWGRGTLVTVSS
VL: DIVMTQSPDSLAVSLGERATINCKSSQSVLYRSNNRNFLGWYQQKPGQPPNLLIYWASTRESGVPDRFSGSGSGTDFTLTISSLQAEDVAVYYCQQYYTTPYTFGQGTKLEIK
notes: also called 316(v2)
- KD ratio pH 6.0/pH 7.4 [1]: 0.41
- ka ratio pH 6.0/pH 7.4 [1]: 1.25
- kd ratio pH 6.0/pH 7.4 [1]: 0.51
- t½ ratio pH 6.0/pH 7.4 [1]: 1.96
- Kd [2]: 0.566 nM
- koff [2]: 0.000292 s⁻¹
- kon [2]: 517000 M⁻¹ s⁻¹
- t½ [2]: 39.5 min
- Kd [3]: 0.23 nM
- koff [3]: 0.000149 s⁻¹
- kon [3]: 649000 M⁻¹ s⁻¹
- t½ [3]: 77.5 min

B2: VH-D108H (antibody, V domains shown)
VH: EMQLVESGGGLVQPGGSLRLSCAASGFTFSSHWMKWVRQAPGKGLEWVANINQDGSEKYYVDSVKGRFTISRDNAKNSLFLQMNSLRAEDTAVYYCARDIVLMVYDMHYYYYGMDVWGQGTTVTVSS
VL: not shown
notes: His variant of 300N
- KD ratio pH 5.75/pH 7.2 [4]: 1.73
- t½ ratio pH 5.75/pH 7.2 [4]: 0.24
- IC50, LDL uptake in HepG2 cells, 2 nM hPCSK9-D374Y-mmH [5]: 2.6 nM
- IC50, LDL uptake in HepG2 cells, 50 nM MfPCSK9-mmH [6]: 12.7 nM
- Kd [7]: 2.69 nM
- t½ [7]: 28 min
- Kd [8]: 4.67 nM
- t½ [8]: 7 min
- IC50 [9]: 0.334 nM

B3: 300N(v1) (antibody, IgG1, V domains shown)
VH: B2 VH with H108D
VL: not shown
- IC50, LDL uptake in HepG2 cells, 100 nM hPCSK9-mmH [10]: 28 nM
- KD ratio pH 6.0/pH 7.4 [1]: 2.33
- ka ratio pH 6.0/pH 7.4 [1]: 1.85
- kd ratio pH 6.0/pH 7.4 [1]: 4.33
- t½ ratio pH 6.0/pH 7.4 [1]: 0.23
- Kd [2]: 0.507 nM
- koff [2]: 7.03e-05 s⁻¹
- kon [2]: 139000 M⁻¹ s⁻¹
- t½ [2]: 164 min
- Kd [3]: 1.18 nM
- koff [3]: 0.000304 s⁻¹
- kon [3]: 257000 M⁻¹ s⁻¹
- t½ [3]: 38 min
- IC50 ratio (pH 5.75/pH 7.2) [11]: 1.4
- IC50 [12]: 0.19 nM
- IC50 [13]: 0.266 nM

B4: VH-V104H (antibody, V domains shown)
VH: B2 VH with V104H, H108D
VL: not shown
notes: His variant of 300N
- KD ratio pH 5.75/pH 7.2 [4]: 8.51
- t½ ratio pH 5.75/pH 7.2 [4]: 0.04
- IC50, LDL uptake in HepG2 cells, 2 nM hPCSK9-D374Y-mmH [5]: 4.7 nM
- IC50, LDL uptake in HepG2 cells, 50 nM MfPCSK9-mmH [6]: 15.8 nM
- Kd [7]: 5.6 nM
- t½ [7]: 11 min
- Kd [8]: 47.6 nM
- t½ [8]: 0.4 min
- IC50 [9]: 0.331 nM

B5: VK-S57H (antibody, V domains shown)
VH: B2 VH with H108D
VL: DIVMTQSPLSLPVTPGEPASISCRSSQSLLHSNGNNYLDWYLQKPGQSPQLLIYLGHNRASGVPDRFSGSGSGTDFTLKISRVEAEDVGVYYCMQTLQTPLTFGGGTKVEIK
notes: His variant of 300N
- KD ratio pH 5.75/pH 7.2 [4]: 1.84
- t½ ratio pH 5.75/pH 7.2 [4]: 0.26
- Kd [7]: 0.948 nM
- t½ [7]: 48 min
- Kd [8]: 1.74 nM
- t½ [8]: 12 min

B6: VK-M94H (antibody, V domains shown)
VH: B2 VH with H108D
VL: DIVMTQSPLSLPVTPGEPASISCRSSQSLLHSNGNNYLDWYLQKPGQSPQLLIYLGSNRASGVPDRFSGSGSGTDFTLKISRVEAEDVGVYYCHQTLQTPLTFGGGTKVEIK
notes: His variant of 300N
- KD ratio pH 5.75/pH 7.2 [4]: 3.21
- t½ ratio pH 5.75/pH 7.2 [4]: 0.23
- Kd [7]: 3.53 nM
- t½ [7]: 29 min
- Kd [8]: 11.3 nM
- t½ [8]: 7 min

B7: VH-Y112H (antibody, V domains shown)
VH: B2 VH with H108D, Y112H
VL: not shown
notes: His variant of 300N
- KD ratio pH 5.75/pH 7.2 [4]: 4.52
- t½ ratio pH 5.75/pH 7.2 [4]: 0.01
- IC50, LDL uptake in HepG2 cells, 2 nM hPCSK9-D374Y-mmH [5]: 4.7 nM
- IC50, LDL uptake in HepG2 cells, 50 nM MfPCSK9-mmH [6]: 21.2 nM
- Kd [7]: 12.3 nM
- t½ [7]: 5 min
- Kd [8]: 55.7 nM
- t½ [8]: 0.04 min
- IC50 [9]: 0.506 nM

B8: VK-Y37H (antibody, V domains shown)
VH: B2 VH with H108D
VL: not shown
notes: His variant of 300N
- KD ratio pH 5.75/pH 7.2 [4]: 72.3
- t½ ratio pH 5.75/pH 7.2 [4]: 0.54
- Kd [7]: 61.2 nM
- t½ [7]: 0 min
- Kd [8]: 4420 nM
- t½ [8]: 0.2 min

B9: VK-N36H (antibody, V domains shown)
VH: B2 VH with H108D
VL: not shown
notes: His variant of 300N
- KD ratio pH 5.75/pH 7.2 [4]: 1.61
- t½ ratio pH 5.75/pH 7.2 [4]: 0.24
- Kd [7]: 0.952 nM
- t½ [7]: 42 min
- Kd [8]: 1.54 nM
- t½ [8]: 10 min

B10: VK-Q95H (antibody, V domains shown)
VH: B2 VH with H108D
VL: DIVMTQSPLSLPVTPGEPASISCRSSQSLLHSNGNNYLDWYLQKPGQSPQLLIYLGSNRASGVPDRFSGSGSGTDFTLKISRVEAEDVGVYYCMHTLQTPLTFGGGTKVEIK
notes: His variant of 300N
- KD ratio pH 5.75/pH 7.2 [4]: 1.48
- t½ ratio pH 5.75/pH 7.2 [4]: 0.23
- Kd [7]: 1.33 nM
- t½ [7]: 27 min
- Kd [8]: 1.97 nM
- t½ [8]: 6 min

B11: VK-Q98H (antibody, V domains shown)
VH: B2 VH with H108D
VL: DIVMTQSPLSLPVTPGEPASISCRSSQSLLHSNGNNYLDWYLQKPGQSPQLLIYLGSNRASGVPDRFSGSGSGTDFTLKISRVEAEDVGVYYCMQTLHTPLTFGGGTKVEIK
notes: His variant of 300N
- KD ratio pH 5.75/pH 7.2 [4]: 0.88
- t½ ratio pH 5.75/pH 7.2 [4]: 0.41
- Kd [7]: 0.914 nM
- t½ [7]: 49 min
- Kd [8]: 0.805 nM
- t½ [8]: 20 min

B12: VH-M107H (antibody, V domains shown)
VH: B2 VH with M107H, H108D
VL: not shown
notes: His variant of 300N
- KD ratio pH 5.75/pH 7.2 [4]: 4.02
- t½ ratio pH 5.75/pH 7.2 [4]: 0.02
- IC50, LDL uptake in HepG2 cells, 2 nM hPCSK9-D374Y-mmH [5]: 4.6 nM
- IC50, LDL uptake in HepG2 cells, 50 nM MfPCSK9-mmH [6]: 15.9 nM
- Kd [7]: 7.34 nM
- t½ [7]: 13 min
- Kd [8]: 29.5 nM
- t½ [8]: 0.2 min
- IC50 [9]: 0.704 nM

B13: VK-P100H (antibody, V domains shown)
VH: B2 VH with H108D
VL: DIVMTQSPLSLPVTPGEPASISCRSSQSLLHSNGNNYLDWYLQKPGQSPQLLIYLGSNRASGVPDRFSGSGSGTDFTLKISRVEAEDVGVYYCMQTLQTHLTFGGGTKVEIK
notes: His variant of 300N
- KD ratio pH 5.75/pH 7.2 [4]: 1.44
- t½ ratio pH 5.75/pH 7.2 [4]: 0.1
- Kd [7]: 8.9 nM
- t½ [7]: 4 min
- Kd [8]: 12.8 nM
- t½ [8]: 0.4 min

B14: VH-V101H (antibody, V domains shown)
VH: B2 VH with V101H, H108D
VL: not shown
notes: His variant of 300N
- KD ratio pH 5.75/pH 7.2 [4]: 1.43
- t½ ratio pH 5.75/pH 7.2 [4]: 0.14
- IC50, LDL uptake in HepG2 cells, 2 nM hPCSK9-D374Y-mmH [5]: 4.7 nM
- IC50, LDL uptake in HepG2 cells, 50 nM MfPCSK9-mmH [6]: 17.2 nM
- Kd [7]: 7.33 nM
- t½ [7]: 25 min
- Kd [8]: 10.5 nM
- t½ [8]: 3 min
- IC50 [9]: 0.857 nM

B15: VK-L97H (antibody, V domains shown)
VH: B2 VH with H108D
VL: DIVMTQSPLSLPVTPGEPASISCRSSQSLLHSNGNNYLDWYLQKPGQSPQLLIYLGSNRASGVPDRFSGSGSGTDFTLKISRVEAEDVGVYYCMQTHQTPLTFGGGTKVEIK
notes: His variant of 300N
- KD ratio pH 5.75/pH 7.2 [4]: 1.94
- t½ ratio pH 5.75/pH 7.2 [4]: 0.18
- Kd [7]: 6.61 nM
- t½ [7]: 45 min
- Kd [8]: 12.8 nM
- t½ [8]: 8 min

B16: VK-N35H (antibody, V domains shown)
VH: B2 VH with H108D
VL: not shown
notes: His variant of 300N
- KD ratio pH 5.75/pH 7.2 [4]: 1.98
- t½ ratio pH 5.75/pH 7.2 [4]: 0.29
- Kd [7]: 1.06 nM
- t½ [7]: 48 min
- Kd [8]: 2.09 nM
- t½ [8]: 14 min

B17: VK-T99H (antibody, V domains shown)
VH: B2 VH with H108D
VL: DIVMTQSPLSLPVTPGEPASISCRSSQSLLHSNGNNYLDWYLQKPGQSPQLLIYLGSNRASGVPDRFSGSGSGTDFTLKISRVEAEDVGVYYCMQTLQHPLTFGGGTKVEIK
notes: His variant of 300N
- KD ratio pH 5.75/pH 7.2 [4]: 1.25
- t½ ratio pH 5.75/pH 7.2 [4]: 0.1
- Kd [7]: 9.63 nM
- t½ [7]: 5 min
- Kd [8]: 12 nM
- t½ [8]: 0.4 min

B18: VK-L101H (antibody, V domains shown)
VH: B2 VH with H108D
VL: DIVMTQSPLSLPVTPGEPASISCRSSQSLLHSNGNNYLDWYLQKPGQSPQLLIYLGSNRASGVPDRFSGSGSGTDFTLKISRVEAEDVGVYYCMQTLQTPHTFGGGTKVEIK
notes: His variant of 300N
- KD ratio pH 5.75/pH 7.2 [4]: 1.84
- t½ ratio pH 5.75/pH 7.2 [4]: 0.25
- Kd [7]: 1.8 nM
- t½ [7]: 33 min
- Kd [8]: 3.3 nM
- t½ [8]: 8 min

B19: VK-S28H (antibody, V domains shown)
VH: B2 VH with H108D
VL: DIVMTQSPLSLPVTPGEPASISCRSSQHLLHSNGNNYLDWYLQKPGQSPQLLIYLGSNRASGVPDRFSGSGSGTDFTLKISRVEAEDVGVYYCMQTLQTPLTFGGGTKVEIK
notes: His variant of 300N
- KD ratio pH 5.75/pH 7.2 [4]: 0.06
- t½ ratio pH 5.75/pH 7.2 [4]: 22.2
- Kd [7]: 138 nM
- t½ [7]: 0 min
- Kd [8]: 7.63 nM
- t½ [8]: 6 min

B20: VK-T102H (antibody, V domains shown)
VH: B2 VH with H108D
VL: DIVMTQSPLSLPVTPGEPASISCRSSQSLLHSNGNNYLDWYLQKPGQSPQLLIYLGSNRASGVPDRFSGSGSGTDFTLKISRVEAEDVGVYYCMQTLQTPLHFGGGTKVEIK
notes: His variant of 300N
- KD ratio pH 5.75/pH 7.2 [4]: 1.17
- t½ ratio pH 5.75/pH 7.2 [4]: 0.33
- Kd [7]: 1.03 nM
- t½ [7]: 49 min
- Kd [8]: 1.21 nM
- t½ [8]: 16 min

B21: VK-Q27H (antibody, V domains shown)
VH: B2 VH with H108D
VL: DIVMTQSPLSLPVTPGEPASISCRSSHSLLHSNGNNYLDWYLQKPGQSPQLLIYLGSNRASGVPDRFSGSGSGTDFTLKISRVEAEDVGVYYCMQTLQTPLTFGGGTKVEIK
notes: His variant of 300N
- KD ratio pH 5.75/pH 7.2 [4]: 0.57
- t½ ratio pH 5.75/pH 7.2 [4]: 0.42
- Kd [7]: 5.01 nM
- t½ [7]: 9 min
- Kd [8]: 2.85 nM
- t½ [8]: 4 min

B22: VK-N33H (antibody, V domains shown)
VH: B2 VH with H108D
VL: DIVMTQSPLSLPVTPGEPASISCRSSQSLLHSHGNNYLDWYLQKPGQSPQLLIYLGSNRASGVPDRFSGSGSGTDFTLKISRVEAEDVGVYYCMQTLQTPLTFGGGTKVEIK
notes: His variant of 300N
- KD ratio pH 5.75/pH 7.2 [4]: 38.1
- t½ ratio pH 5.75/pH 7.2 [4]: 0.12
- Kd [7]: 9.69 nM
- t½ [7]: 2 min
- Kd [8]: 369 nM
- t½ [8]: 0.3 min
